Reference: PMC6367351 (Nature Communications, 2019)
Where no end group is shown, it is not given here.

Assays:
MinElp3 [1] = biological target: T1, MinElp3 (Methanocaldococcus infernus, UniProt D5VRB9 1-534); assay: MST; conditions: EMSA: 25 C 30 min, 6% native PAGE at 4 C, tRNA stored in 20 mM HEPES pH 7.5, 150 mM NaCl, 5 mM DTT, 1 mM MgCl2, MST buffer not given in material
T1 sequence: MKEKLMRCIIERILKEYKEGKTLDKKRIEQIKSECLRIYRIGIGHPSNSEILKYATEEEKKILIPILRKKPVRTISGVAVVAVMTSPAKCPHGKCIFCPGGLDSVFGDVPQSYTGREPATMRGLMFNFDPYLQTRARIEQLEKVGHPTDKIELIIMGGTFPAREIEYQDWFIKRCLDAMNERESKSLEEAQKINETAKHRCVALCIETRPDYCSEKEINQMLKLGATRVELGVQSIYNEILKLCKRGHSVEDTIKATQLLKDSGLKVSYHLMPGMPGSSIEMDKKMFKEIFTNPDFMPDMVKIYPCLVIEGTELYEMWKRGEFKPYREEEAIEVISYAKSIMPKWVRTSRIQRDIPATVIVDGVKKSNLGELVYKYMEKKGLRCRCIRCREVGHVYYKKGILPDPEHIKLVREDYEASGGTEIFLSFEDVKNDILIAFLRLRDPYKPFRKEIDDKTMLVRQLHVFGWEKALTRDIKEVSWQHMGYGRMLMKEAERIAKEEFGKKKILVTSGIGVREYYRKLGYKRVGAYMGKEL

[2] = system: DmcElp3 (Dehalococcoides mccartyi); assay: MST; conditions: EMSA: 25 C 30 min, 6% native PAGE at 4 C; tRNA stored in 20 mM HEPES pH 7.5, 150 mM NaCl, 5 mM DTT, 1 mM MgCl2; MST buffer not given in material
[3] = system: MinElp3Δ1-19 (Methanocaldococcus infernus); assay: MST; conditions: legend omits CCA; wt data identical to the CCA set; EMSA: 25 C 30 min, 6% native PAGE at 4 C; tRNA stored in 20 mM HEPES pH 7.5, 150 mM NaCl, 5 mM DTT, 1 mM MgCl2; MST buffer not given in material
[4] = system: ScMinElp3 (Methanocaldococcus infernus / Saccharomyces cerevisiae chimera); assay: MST; conditions: mean of 229, 162, 75; EMSA: 25 C 30 min, 6% native PAGE at 4 C; tRNA stored in 20 mM HEPES pH 7.5, 150 mM NaCl, 5 mM DTT, 1 mM MgCl2; MST buffer not given in material
[5] = system: HsMinElp3 (Methanocaldococcus infernus / Homo sapiens chimera); assay: MST; conditions: mean of 180, 141, 108; EMSA: 25 C 30 min, 6% native PAGE at 4 C; tRNA stored in 20 mM HEPES pH 7.5, 150 mM NaCl, 5 mM DTT, 1 mM MgCl2; MST buffer not given in material
[6] = system: MinElp3Δ1-41 (Methanocaldococcus infernus); assay: MST; conditions: legend omits CCA; wt data identical to the CCA set; EMSA: 25 C 30 min, 6% native PAGE at 4 C; tRNA stored in 20 mM HEPES pH 7.5, 150 mM NaCl, 5 mM DTT, 1 mM MgCl2; MST buffer not given in material
[7] = biological target: T2, MinElp3 (Methanocaldococcus infernus) (UniProt D5VRB9); assay: MST; conditions: EMSA: 25 C 30 min, 6% native PAGE at 4 C; tRNA stored in 20 mM HEPES pH 7.5, 150 mM NaCl, 5 mM DTT, 1 mM MgCl2; MST buffer not given in material
T2 sequence: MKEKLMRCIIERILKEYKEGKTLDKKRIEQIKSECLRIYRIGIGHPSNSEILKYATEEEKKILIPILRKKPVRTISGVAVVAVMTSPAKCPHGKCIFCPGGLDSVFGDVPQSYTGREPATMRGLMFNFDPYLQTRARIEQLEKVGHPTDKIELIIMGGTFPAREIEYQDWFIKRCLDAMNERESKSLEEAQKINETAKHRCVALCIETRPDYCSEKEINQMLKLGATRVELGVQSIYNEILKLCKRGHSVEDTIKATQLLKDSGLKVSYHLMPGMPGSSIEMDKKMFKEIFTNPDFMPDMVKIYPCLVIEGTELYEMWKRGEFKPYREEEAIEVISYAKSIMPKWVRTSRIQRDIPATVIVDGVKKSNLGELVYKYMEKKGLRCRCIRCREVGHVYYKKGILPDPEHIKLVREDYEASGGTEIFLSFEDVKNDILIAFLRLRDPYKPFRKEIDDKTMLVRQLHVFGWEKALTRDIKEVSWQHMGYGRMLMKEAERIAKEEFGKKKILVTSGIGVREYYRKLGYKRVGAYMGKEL

[8] = biological target: T3, Methanocaldococcus infernus Elp3, full length (Methanocaldococcus infernus, UniProt D5VRB9 1-534); assay: ITC
T3 chain: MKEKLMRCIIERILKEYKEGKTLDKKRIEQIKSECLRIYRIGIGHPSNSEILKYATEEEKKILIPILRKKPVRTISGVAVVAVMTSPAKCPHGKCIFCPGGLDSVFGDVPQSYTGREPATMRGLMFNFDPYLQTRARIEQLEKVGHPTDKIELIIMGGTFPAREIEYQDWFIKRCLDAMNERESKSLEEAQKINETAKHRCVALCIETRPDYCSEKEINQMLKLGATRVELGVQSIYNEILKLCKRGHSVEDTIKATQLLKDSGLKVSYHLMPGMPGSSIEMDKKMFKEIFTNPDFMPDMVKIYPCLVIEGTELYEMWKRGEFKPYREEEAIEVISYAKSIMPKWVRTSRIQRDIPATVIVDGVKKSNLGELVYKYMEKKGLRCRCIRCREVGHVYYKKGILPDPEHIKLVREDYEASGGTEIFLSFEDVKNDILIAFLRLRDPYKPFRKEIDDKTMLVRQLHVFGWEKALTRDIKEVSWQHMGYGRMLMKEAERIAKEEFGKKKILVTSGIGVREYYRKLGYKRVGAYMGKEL

MinElp3 [9] = biological target: T1, MinElp3; assay: EMSA; EMSA: 25 C 30 min, 6% native PAGE at 4 C; tRNA stored in 20 mM HEPES pH 7.5, 150 mM NaCl, 5 mM DTT, 1 mM MgCl2; MST buffer not given in material; conditions: protein: recombinant; tags: GST tag cleaved (TEV); label: Cy5; hairpin
[10] = biological target: the molecule itself; assay: SEC; S200 gel filtration, 20 mM HEPES pH 7.5, 150 mM NaCl, 5 mM DTT; aerobic purification; masses of the monomeric forms confirmed by SDS-PAGE and light scattering (RALS and LALS)

(Dmc)tRNAGluUUC
Kd (MinElp3 [1]; mean of 495, 434, 596): 508 nM

(Dmc)tRNAGluUUC(CCA)
Kd (MinElp3 [1]): 50 nM
Kd [2]: 1410 nM
Kd [3]: 210 nM
Kd [4]: 155 nM
Kd [5]: 143 nM
Kd [6]: 980 nM

(Sc)tRNACysGCA
Kd (MinElp3 [1]; replicates 240, 261, 280 nM): 260 nM

(Sc)tRNASerUGA
Kd (MinElp3 [1]; replicates 322, 539, 293 nM): 370 nM

GCUCGUAUGGCGCAGUGGUAGCGCAGCAGAUUGCAAAUCUGUUGGUCCUUAGUUCGAUCCUGAGUGCGAGCUGCGUCUUCCCAUGGGUGUAUUCGGUCG [(Sc)tRNACysGCA]
Kd [7]: 260 nM

B1: alpha-tubulin peptide Tubulin(36–44) with an added N-terminal tyrosine (peptide)
peptide: YMPSDKTIGG-NH2
modifications: not fully specified (N-terminus)
Kd [8]: > 500000 nM

B2: ASL yeast tRNASerUGA (structured_RNA)
RNA: GACAGACUUGAAAUCUGUU
binding result (MinElp3 [9]): binds

B3: histone H3 peptide H3(10–18) with an added N-terminal tyrosine (peptide)
peptide: YSTGGKAPRK-NH2
modifications: not fully specified (N-terminus)
Kd [8]: > 350000 nM

B4: MinElp3 Δ1–68 (domain or fragment, Methanocaldococcus infernus, UniProt D5VRB9 69-534, looked up)
chain: KKPVRTISGVAVVAVMTSPAKCPHGKCIFCPGGLDSVFGDVPQSYTGREPATMRGLMFNFDPYLQTRARIEQLEKVGHPTDKIELIIMGGTFPAREIEYQDWFIKRCLDAMNERESKSLEEAQKINETAKHRCVALCIETRPDYCSEKEINQMLKLGATRVELGVQSIYNEILKLCKRGHSVEDTIKATQLLKDSGLKVSYHLMPGMPGSSIEMDKKMFKEIFTNPDFMPDMVKIYPCLVIEGTELYEMWKRGEFKPYREEEAIEVISYAKSIMPKWVRTSRIQRDIPATVIVDGVKKSNLGELVYKYMEKKGLRCRCIRCREVGHVYYKKGILPDPEHIKLVREDYEASGGTEIFLSFEDVKNDILIAFLRLRDPYKPFRKEIDDKTMLVRQLHVFGWEKALTRDIKEVSWQHMGYGRMLMKEAERIAKEEFGKKKILVTSGIGVREYYRKLGYKRVGAYMGKEL
notes: Elp3 of Methanocaldococcus infernus without residues 1-68; Truncations were cloned into pETM30 or pETM11; source: E. coli BL21 (DE3) CodonPlus-RIL, purified (GSTPrep, heparin, SEC)
binding result [10]: binds

B5: MinElp3 Δ1–46 (domain or fragment, Methanocaldococcus infernus, UniProt D5VRB9 47-534, looked up)
chain: SNSEILKYATEEEKKILIPILRKKPVRTISGVAVVAVMTSPAKCPHGKCIFCPGGLDSVFGDVPQSYTGREPATMRGLMFNFDPYLQTRARIEQLEKVGHPTDKIELIIMGGTFPAREIEYQDWFIKRCLDAMNERESKSLEEAQKINETAKHRCVALCIETRPDYCSEKEINQMLKLGATRVELGVQSIYNEILKLCKRGHSVEDTIKATQLLKDSGLKVSYHLMPGMPGSSIEMDKKMFKEIFTNPDFMPDMVKIYPCLVIEGTELYEMWKRGEFKPYREEEAIEVISYAKSIMPKWVRTSRIQRDIPATVIVDGVKKSNLGELVYKYMEKKGLRCRCIRCREVGHVYYKKGILPDPEHIKLVREDYEASGGTEIFLSFEDVKNDILIAFLRLRDPYKPFRKEIDDKTMLVRQLHVFGWEKALTRDIKEVSWQHMGYGRMLMKEAERIAKEEFGKKKILVTSGIGVREYYRKLGYKRVGAYMGKEL
notes: Elp3 of Methanocaldococcus infernus without residues 1-46; Truncations were cloned into pETM30 or pETM11; source: E. coli BL21 (DE3) CodonPlus-RIL, purified (GSTPrep, heparin, SEC)
binding result [10]: binds

B6: MinElp3 Δ1–54 (domain or fragment, Methanocaldococcus infernus, UniProt D5VRB9 55-534, looked up)
chain: ATEEEKKILIPILRKKPVRTISGVAVVAVMTSPAKCPHGKCIFCPGGLDSVFGDVPQSYTGREPATMRGLMFNFDPYLQTRARIEQLEKVGHPTDKIELIIMGGTFPAREIEYQDWFIKRCLDAMNERESKSLEEAQKINETAKHRCVALCIETRPDYCSEKEINQMLKLGATRVELGVQSIYNEILKLCKRGHSVEDTIKATQLLKDSGLKVSYHLMPGMPGSSIEMDKKMFKEIFTNPDFMPDMVKIYPCLVIEGTELYEMWKRGEFKPYREEEAIEVISYAKSIMPKWVRTSRIQRDIPATVIVDGVKKSNLGELVYKYMEKKGLRCRCIRCREVGHVYYKKGILPDPEHIKLVREDYEASGGTEIFLSFEDVKNDILIAFLRLRDPYKPFRKEIDDKTMLVRQLHVFGWEKALTRDIKEVSWQHMGYGRMLMKEAERIAKEEFGKKKILVTSGIGVREYYRKLGYKRVGAYMGKEL
notes: Elp3 of Methanocaldococcus infernus without residues 1-54; Truncations were cloned into pETM30 or pETM11; source: E. coli BL21 (DE3) CodonPlus-RIL, purified (GSTPrep, heparin, SEC)
binding result [10]: binds

B7: MinElp3 Δ1–19 (domain or fragment, Methanocaldococcus infernus, UniProt D5VRB9 20-534, looked up)
chain: GKTLDKKRIEQIKSECLRIYRIGIGHPSNSEILKYATEEEKKILIPILRKKPVRTISGVAVVAVMTSPAKCPHGKCIFCPGGLDSVFGDVPQSYTGREPATMRGLMFNFDPYLQTRARIEQLEKVGHPTDKIELIIMGGTFPAREIEYQDWFIKRCLDAMNERESKSLEEAQKINETAKHRCVALCIETRPDYCSEKEINQMLKLGATRVELGVQSIYNEILKLCKRGHSVEDTIKATQLLKDSGLKVSYHLMPGMPGSSIEMDKKMFKEIFTNPDFMPDMVKIYPCLVIEGTELYEMWKRGEFKPYREEEAIEVISYAKSIMPKWVRTSRIQRDIPATVIVDGVKKSNLGELVYKYMEKKGLRCRCIRCREVGHVYYKKGILPDPEHIKLVREDYEASGGTEIFLSFEDVKNDILIAFLRLRDPYKPFRKEIDDKTMLVRQLHVFGWEKALTRDIKEVSWQHMGYGRMLMKEAERIAKEEFGKKKILVTSGIGVREYYRKLGYKRVGAYMGKEL
notes: Elp3 of Methanocaldococcus infernus without residues 1-19; Truncations were cloned into pETM30 or pETM11; The general purification goes by a GST tag that is cleaved; source: E. coli BL21 (DE3) CodonPlus-RIL, purified (GSTPrep, heparin, SEC)
binding result [10]: binds

B8: MinElp3 Δ1–41 (domain or fragment, Methanocaldococcus infernus, UniProt D5VRB9 42-534, looked up)
chain: GIGHPSNSEILKYATEEEKKILIPILRKKPVRTISGVAVVAVMTSPAKCPHGKCIFCPGGLDSVFGDVPQSYTGREPATMRGLMFNFDPYLQTRARIEQLEKVGHPTDKIELIIMGGTFPAREIEYQDWFIKRCLDAMNERESKSLEEAQKINETAKHRCVALCIETRPDYCSEKEINQMLKLGATRVELGVQSIYNEILKLCKRGHSVEDTIKATQLLKDSGLKVSYHLMPGMPGSSIEMDKKMFKEIFTNPDFMPDMVKIYPCLVIEGTELYEMWKRGEFKPYREEEAIEVISYAKSIMPKWVRTSRIQRDIPATVIVDGVKKSNLGELVYKYMEKKGLRCRCIRCREVGHVYYKKGILPDPEHIKLVREDYEASGGTEIFLSFEDVKNDILIAFLRLRDPYKPFRKEIDDKTMLVRQLHVFGWEKALTRDIKEVSWQHMGYGRMLMKEAERIAKEEFGKKKILVTSGIGVREYYRKLGYKRVGAYMGKEL
notes: Elp3 of Methanocaldococcus infernus without residues 1-41; Truncations were cloned into pETM30 or pETM11; source: E. coli BL21 (DE3) CodonPlus-RIL, purified (GSTPrep, heparin, SEC)
binding result [10]: binds
